From PMC7793593 (Science Advances, 2021)

B1: HAdV-F41 hexon protein (natural protein, human adenovirus F41 (strain Tak))
chain: MATPSMMPQWSYMHIAGQDASEYLSPGLVQFARATDTYFSLGNKFRNPTVAPTHDVTTDRSQRLTLRFVPVDREDTAYSYKVRFTLAVGDNRVLDMASTYFDIRGVLDRGPSFKPYSGTAYNSLAPKTAPNPCEWKDNNKIKVRGQAPFIGTNINKDNGIQIGTDTTNQPIYADKTYQPEPQVGQTQWNSEVGAAQKVAGRVLKDTTPMLPCYGSYAKPTNEKGGQASLITNGTDQTLTSDVNLQFFALPSTPNEPKAVLYAENVSIEAPDTHLVYKPDVAQGTISSADLLTQQAAPNRPNYIGFRDNFIGLMYYNSTGNMGVLAGQASQLNAVVDLQDRNTELSYQLMLDALGDRSRYFSMWNQAVDSYDPDVRIIENHGVEDELPNYCFPLGGSAATDTYSGIKANGQTWTADDNYADRGAEIESGNIFAMEINLAANLWRSFLYSNVALYLPDSYKITPDNITLPENKNTYAYMNGRVAVPSALDTYVNIGARWSPDPMDNVNPFNHHRNAGLRYRSMLLGNGRYVPFHIQVPQKFFAIKNLLLLPGSYTYEWNFRKDVNMILQSSLGNDLRVDGASVRFDSINLYANFFPMAHNTASTLEAMLRNDTNDQSFNDYLCAANMLYPIPSNATSVPISIPSRNWAAFRGWSFTRLKTKETPSLGSGFDPYFTYSGSVPYLDGTFYLNHTFKKVSIMFDSSVSWPGNDRLLTPNEFEIKRTVDGEGYNVAQCNMTKDWFLIQMLSHYNIGYQGFYVPESYKDRMYSFFRNFQPMSRQVVNTTTYKEYQNVTLPFQHNNSGFVGYMGPTMREGQAYPANYPYPLIGQTAVPSLTQKKFLCDRTMWRIPFSSNFMSMGALTDLGQNMLYANSAHALDMTFEVDPMDEPTLLYVLFEVFDVVRIHQPHRGVIEAVYLRTPFSAGNATT

Tests used:
Assay in all cases: cryo-EM structure
[1] = biological target: HAdV-F41 penton base protein, virion-bound (human adenovirus F41 (strain Tak))
[2] = biological target: the molecule itself
[3] = biological target: B1

Molecule | stoichiometry N [1] | stoichiometry N [2] | binding result [3]
HAdV-F41 penton base protein, virion-bound (natural protein) | 5 | – | –
B1 | – | 3 | –
HAdV-F41 capsid protein IX (natural protein, human adenovirus F41 (strain Tak), UniProt P32539 1-133, looked up) MSGSMEGNAVSFKGGVFSPYLTTRLPAWAGVRQNVMGSNVDGRPVAPANSATLTYATVGSSVDTAAAAAASAAASTARGMAADFGLYNQLAASRSLREEDALSVVLTRMEELSQQLQDLFAKVALLNPPANAS | – | 3 | binds
